Among the data in publication PMC5456053 are Channel Activity, μA, +YEG: ion current in Xenopus oocytes injected with the fragment, liposomes, SecYEG-SecDF•YajC, pOmpA, ATP-Mg, translocation of pOmpA, liposomes with SecYEG-SecDF•YajC, N-fragment reconstituted with C34 (Fig 6B) (% of the activity of intact SecA) and % pOmpA Translocation, +YEG: in vitro translocation of pOmpA into liposomes with SecYEG-SecDF•YajC (% pOmpA Translocation) values, retold here.

For assay [1], the target named is SecYEG-SecDF•YajC (E. coli) (UniProt P0AGA2).
For assay [2], the target named is SecA C34 (C-terminal 34 kD protein; SecA 610-901) (E. coli) (UniProt P10408).

B1: SecA N639* (SecA 1-639, F639D) (domain or fragment)
chain: MLIKLLTKVFGSRNDRTLRRMRKVVNIINAMEPEMEKLSDEELKGKTAEFRARLEKGEVLENLIPEAFAVVREASKRVFGMRHFDVQLLGGMVLNERCIAEMRTGEGKTLTATLPAYLNALTGKGVHVVTVNDYLAQRDAENNRPLFEFLGLTVGINLPGMPAPAKREAYAADITYGTNNEYGFDYLRDNMAFSPEERVQRKLHYALVDEVDSILIDEARTPLIISGPAEDSSEMYKRVNKIIPHLIRQEKEDSETFQGEGHFSVDEKSRQVNLTERGLVLIEELLVKEGIMDEGESLYSPANIMLMHHVTAALRAHALFTRDVDYIVKDGEVIIVDEHTGRTMQGRRWSDGLHQAVEAKEGVQIQNENQTLASITFQNYFRLYEKLAGMTGTADTEAFEFSSIYKLDTVVVPTNRPMIRKDLPDLVYMTEAEKIQAIIEDIKERTAKGQPVLVGTISIEKSELVSNELTKAGIKHNVLNAKFHANEAAIVAQAGYPAAVTIATNMAGRGTDIVLGGSWQAEVAALENPTAEQIEKIKADWQVRHDAVLEAGGLHIIGTERHESRRIDNQLRGRSGRQGDAGSSRFYLSMEDALMRIFASDRVSGMMRKLGMKPGEAIEHPWVTKAIANAQRKVESRND
In assay [1], B1 gave a Channel Activity, μA, +YEG: ion current in Xenopus oocytes injected with the fragment, liposomes, SecYEG-SecDF•YajC, pOmpA, ATP-Mg of 1.1 μA.

B2: SecA N668 (SecA 1-668) (domain or fragment)
chain: MLIKLLTKVFGSRNDRTLRRMRKVVNIINAMEPEMEKLSDEELKGKTAEFRARLEKGEVLENLIPEAFAVVREASKRVFGMRHFDVQLLGGMVLNERCIAEMRTGEGKTLTATLPAYLNALTGKGVHVVTVNDYLAQRDAENNRPLFEFLGLTVGINLPGMPAPAKREAYAADITYGTNNEYGFDYLRDNMAFSPEERVQRKLHYALVDEVDSILIDEARTPLIISGPAEDSSEMYKRVNKIIPHLIRQEKEDSETFQGEGHFSVDEKSRQVNLTERGLVLIEELLVKEGIMDEGESLYSPANIMLMHHVTAALRAHALFTRDVDYIVKDGEVIIVDEHTGRTMQGRRWSDGLHQAVEAKEGVQIQNENQTLASITFQNYFRLYEKLAGMTGTADTEAFEFSSIYKLDTVVVPTNRPMIRKDLPDLVYMTEAEKIQAIIEDIKERTAKGQPVLVGTISIEKSELVSNELTKAGIKHNVLNAKFHANEAAIVAQAGYPAAVTIATNMAGRGTDIVLGGSWQAEVAALENPTAEQIEKIKADWQVRHDAVLEAGGLHIIGTERHESRRIDNQLRGRSGRQGDAGSSRFYLSMEDALMRIFASDRVSGMMRKLGMKPGEAIEHPWVTKAIANAQRKVESRNFDIRKQLLEYDDVANDQRRAIYSQRNELLD
The molecule B2 came in with a translocation of pOmpA, liposomes with SecYEG-SecDF•YajC, N-fragment reconstituted with C34 (Fig 6B) (% of the activity of intact SecA) in assay [2] of 50. For the same molecule, in assay [1], the % pOmpA Translocation, +YEG: in vitro translocation of pOmpA into liposomes with SecYEG-SecDF•YajC (% pOmpA Translocation) amounted to 0 and the Channel Activity, μA, +YEG: ion current in Xenopus oocytes injected with the fragment, liposomes, SecYEG-SecDF•YajC, pOmpA, ATP-Mg was determined as 5.8 μA.

B3: SecA N643 (SecA 1-643) (domain or fragment)
chain: MLIKLLTKVFGSRNDRTLRRMRKVVNIINAMEPEMEKLSDEELKGKTAEFRARLEKGEVLENLIPEAFAVVREASKRVFGMRHFDVQLLGGMVLNERCIAEMRTGEGKTLTATLPAYLNALTGKGVHVVTVNDYLAQRDAENNRPLFEFLGLTVGINLPGMPAPAKREAYAADITYGTNNEYGFDYLRDNMAFSPEERVQRKLHYALVDEVDSILIDEARTPLIISGPAEDSSEMYKRVNKIIPHLIRQEKEDSETFQGEGHFSVDEKSRQVNLTERGLVLIEELLVKEGIMDEGESLYSPANIMLMHHVTAALRAHALFTRDVDYIVKDGEVIIVDEHTGRTMQGRRWSDGLHQAVEAKEGVQIQNENQTLASITFQNYFRLYEKLAGMTGTADTEAFEFSSIYKLDTVVVPTNRPMIRKDLPDLVYMTEAEKIQAIIEDIKERTAKGQPVLVGTISIEKSELVSNELTKAGIKHNVLNAKFHANEAAIVAQAGYPAAVTIATNMAGRGTDIVLGGSWQAEVAALENPTAEQIEKIKADWQVRHDAVLEAGGLHIIGTERHESRRIDNQLRGRSGRQGDAGSSRFYLSMEDALMRIFASDRVSGMMRKLGMKPGEAIEHPWVTKAIANAQRKVESRNFDIRK
For the molecule B3, the Channel Activity, μA, +YEG: ion current in Xenopus oocytes injected with the fragment, liposomes, SecYEG-SecDF•YajC, pOmpA, ATP-Mg in assay [1] came to 3.2 μA.

B4: SecA N632 (SecA 1-632) (domain or fragment)
chain: MLIKLLTKVFGSRNDRTLRRMRKVVNIINAMEPEMEKLSDEELKGKTAEFRARLEKGEVLENLIPEAFAVVREASKRVFGMRHFDVQLLGGMVLNERCIAEMRTGEGKTLTATLPAYLNALTGKGVHVVTVNDYLAQRDAENNRPLFEFLGLTVGINLPGMPAPAKREAYAADITYGTNNEYGFDYLRDNMAFSPEERVQRKLHYALVDEVDSILIDEARTPLIISGPAEDSSEMYKRVNKIIPHLIRQEKEDSETFQGEGHFSVDEKSRQVNLTERGLVLIEELLVKEGIMDEGESLYSPANIMLMHHVTAALRAHALFTRDVDYIVKDGEVIIVDEHTGRTMQGRRWSDGLHQAVEAKEGVQIQNENQTLASITFQNYFRLYEKLAGMTGTADTEAFEFSSIYKLDTVVVPTNRPMIRKDLPDLVYMTEAEKIQAIIEDIKERTAKGQPVLVGTISIEKSELVSNELTKAGIKHNVLNAKFHANEAAIVAQAGYPAAVTIATNMAGRGTDIVLGGSWQAEVAALENPTAEQIEKIKADWQVRHDAVLEAGGLHIIGTERHESRRIDNQLRGRSGRQGDAGSSRFYLSMEDALMRIFASDRVSGMMRKLGMKPGEAIEHPWVTKAIANAQR
With B4, the Channel Activity, μA, +YEG: ion current in Xenopus oocytes injected with the fragment, liposomes, SecYEG-SecDF•YajC, pOmpA, ATP-Mg in assay [1] amounted to 0.4 μA.

B5: SecA N640 (SecA 1-640) (domain or fragment)
chain: MLIKLLTKVFGSRNDRTLRRMRKVVNIINAMEPEMEKLSDEELKGKTAEFRARLEKGEVLENLIPEAFAVVREASKRVFGMRHFDVQLLGGMVLNERCIAEMRTGEGKTLTATLPAYLNALTGKGVHVVTVNDYLAQRDAENNRPLFEFLGLTVGINLPGMPAPAKREAYAADITYGTNNEYGFDYLRDNMAFSPEERVQRKLHYALVDEVDSILIDEARTPLIISGPAEDSSEMYKRVNKIIPHLIRQEKEDSETFQGEGHFSVDEKSRQVNLTERGLVLIEELLVKEGIMDEGESLYSPANIMLMHHVTAALRAHALFTRDVDYIVKDGEVIIVDEHTGRTMQGRRWSDGLHQAVEAKEGVQIQNENQTLASITFQNYFRLYEKLAGMTGTADTEAFEFSSIYKLDTVVVPTNRPMIRKDLPDLVYMTEAEKIQAIIEDIKERTAKGQPVLVGTISIEKSELVSNELTKAGIKHNVLNAKFHANEAAIVAQAGYPAAVTIATNMAGRGTDIVLGGSWQAEVAALENPTAEQIEKIKADWQVRHDAVLEAGGLHIIGTERHESRRIDNQLRGRSGRQGDAGSSRFYLSMEDALMRIFASDRVSGMMRKLGMKPGEAIEHPWVTKAIANAQRKVESRNFD
The molecule B5 gave a translocation of pOmpA, liposomes with SecYEG-SecDF•YajC, N-fragment reconstituted with C34 (Fig 6B) (% of the activity of intact SecA) in assay [2] of 50. Moreover, the Channel Activity, μA, +YEG: ion current in Xenopus oocytes injected with the fragment, liposomes, SecYEG-SecDF•YajC, pOmpA, ATP-Mg in assay [1] stood at 2.2 μA.
